Patent publication US20240261333A1, “NOVEL TARGETS FOR ENHANCING ANTI-TUMOR IMMUNITY” (THE BROAD INSTITUTE, INC., priority 2021, published 2024)

How the values were obtained:
ATP1A1 (human) = ATP1A1 (human) (UniProt P05023); test: co-IP/MS, anti-FLAG IP of C-FLAG B3GNT2 cell lysate
CALU (human) = CALU (human) (UniProt O43852); test: as above
FAM3C (human) = FAM3C (human) (UniProt Q92520); test: as above
FKBP10 (human) = FKBP10 (human) (UniProt Q96AY3); test: as above
HSD17B12 (human) = HSD17B12 (human) (UniProt Q53GQ0); test: as above
IPO4 (human) = IPO4 (human) (UniProt Q8TEX9); test: as above
PDIA6 (human) = PDIA6 (human) (UniProt Q15084); test: as above
RPL12 (human) = RPL12 (human) (UniProt P30050); test: as above
RPL23A (human) = RPL23A (human) (UniProt P62750); test: as above
RPL24 (human) = RPL24 (human) (UniProt P83731); test: as above
RPL30 (human) = RPL30 (human) (UniProt P62888); test: as above
RPS15 (human) = RPS15 (human) (UniProt P62841); test: as above
RPS9 (human) = RPS9 (human) (UniProt P46781); test: as above
SLC25A4 (human) = SLC25A4 (human) (UniProt P12235); test: as above
UQCRC2 (human) = UQCRC2 (human) (UniProt P22695); test: as above
GBF1 (human) = GBF1 (human) (UniProt Q92538); test: co-IP with anti-FLAG, C-FLAG B3GNT2, mass spectrometry
MMP14 (human) = MMP14 (human) (UniProt P50281); test: as above
PPFIBP1 (human) = PPFIBP1 (human) (UniProt Q86W92); test: as above
PRRC2C (human) = PRRC2C (human) (UniProt Q9Y520); test: as above
PURA (human) = PURA (human) (UniProt Q00577); test: as above
RACK1 (human) = RACK1 (human) (UniProt P63244); test: as above
RBM14 (human) = RBM14 (human) (UniProt Q96PK6); test: as above
RPL7 (human) = RPL7 (human) (UniProt P18124); test: as above
RPS24 (human) = RPS24 (human) (UniProt P62847); test: as above
RPS26 (human) = RPS26 (human) (UniProt P62854); test: as above
SPARC (human) = SPARC (human) (UniProt P09486); test: as above
SYNM (human) = SYNM (human) (UniProt O15061); test: as above
TBL2 (human) = TBL2 (human) (UniProt Q9Y4P3); test: as above
TPM3 (human) = TPM3 (human) (UniProt P06753); test: as above
XPO1 (human) = XPO1 (human) (UniProt O14980); test: as above
XPOT (human) = XPOT (human) (UniProt O43592); test: as above
YTHDF2 (human) = biological target: T1, YTHDF2 (human) (UniProt Q9Y5A9); test: as above
T1 sequence (looked up): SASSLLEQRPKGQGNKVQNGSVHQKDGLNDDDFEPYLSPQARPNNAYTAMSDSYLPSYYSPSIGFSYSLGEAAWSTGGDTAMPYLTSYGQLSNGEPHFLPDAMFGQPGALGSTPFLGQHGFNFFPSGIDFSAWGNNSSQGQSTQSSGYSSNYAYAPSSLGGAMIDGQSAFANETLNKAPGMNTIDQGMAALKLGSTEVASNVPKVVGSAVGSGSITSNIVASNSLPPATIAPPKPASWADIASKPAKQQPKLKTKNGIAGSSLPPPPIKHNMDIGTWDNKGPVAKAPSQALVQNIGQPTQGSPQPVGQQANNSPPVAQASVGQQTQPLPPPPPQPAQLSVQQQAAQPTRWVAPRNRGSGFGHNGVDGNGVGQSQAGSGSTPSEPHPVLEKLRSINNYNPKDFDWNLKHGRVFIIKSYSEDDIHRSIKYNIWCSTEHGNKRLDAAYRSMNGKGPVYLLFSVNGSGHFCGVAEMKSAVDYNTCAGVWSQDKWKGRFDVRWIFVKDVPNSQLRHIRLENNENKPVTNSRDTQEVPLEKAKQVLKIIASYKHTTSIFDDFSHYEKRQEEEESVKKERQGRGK

Sequence of PPFIBP1 (human) (Q86W92 other isoform, or with tags, fused parts or gaps limits assumed): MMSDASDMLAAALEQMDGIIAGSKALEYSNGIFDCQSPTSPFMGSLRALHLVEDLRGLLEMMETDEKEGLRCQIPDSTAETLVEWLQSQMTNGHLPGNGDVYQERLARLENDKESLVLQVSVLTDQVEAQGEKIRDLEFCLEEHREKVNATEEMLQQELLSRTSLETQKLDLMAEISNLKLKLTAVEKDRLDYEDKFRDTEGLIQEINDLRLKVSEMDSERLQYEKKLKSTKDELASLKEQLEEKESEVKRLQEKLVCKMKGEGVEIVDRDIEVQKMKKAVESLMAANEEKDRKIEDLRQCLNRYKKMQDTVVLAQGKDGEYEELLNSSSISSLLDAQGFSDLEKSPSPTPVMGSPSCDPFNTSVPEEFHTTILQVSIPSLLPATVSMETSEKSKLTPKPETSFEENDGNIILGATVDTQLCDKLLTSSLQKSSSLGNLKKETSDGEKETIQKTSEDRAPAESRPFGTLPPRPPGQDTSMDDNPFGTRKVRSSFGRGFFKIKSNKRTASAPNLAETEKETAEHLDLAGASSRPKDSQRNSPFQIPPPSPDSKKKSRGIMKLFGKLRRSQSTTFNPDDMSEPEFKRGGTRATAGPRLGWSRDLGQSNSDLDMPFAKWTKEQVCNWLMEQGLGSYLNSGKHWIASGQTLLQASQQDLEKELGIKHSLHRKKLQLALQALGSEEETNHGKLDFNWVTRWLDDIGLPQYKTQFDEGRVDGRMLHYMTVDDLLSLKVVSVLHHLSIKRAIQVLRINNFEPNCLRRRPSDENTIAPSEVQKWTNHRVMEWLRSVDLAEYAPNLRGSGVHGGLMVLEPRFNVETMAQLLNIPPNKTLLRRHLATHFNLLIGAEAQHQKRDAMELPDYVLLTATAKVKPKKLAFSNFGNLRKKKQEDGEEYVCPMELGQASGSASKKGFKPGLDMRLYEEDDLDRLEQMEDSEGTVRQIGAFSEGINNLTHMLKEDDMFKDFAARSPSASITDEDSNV
Sequence of CALU (human) (O43852 20-315 limits assumed): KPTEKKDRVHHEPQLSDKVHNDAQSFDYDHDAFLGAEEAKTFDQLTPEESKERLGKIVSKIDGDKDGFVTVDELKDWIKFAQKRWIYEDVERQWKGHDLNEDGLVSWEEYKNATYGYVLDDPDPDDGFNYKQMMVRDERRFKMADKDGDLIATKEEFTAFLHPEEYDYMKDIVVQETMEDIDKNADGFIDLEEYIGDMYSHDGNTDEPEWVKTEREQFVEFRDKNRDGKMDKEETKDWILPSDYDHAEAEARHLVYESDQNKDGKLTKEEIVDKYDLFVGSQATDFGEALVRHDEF
Sequence of FAM3C (human) (Q92520 25-227 limits assumed): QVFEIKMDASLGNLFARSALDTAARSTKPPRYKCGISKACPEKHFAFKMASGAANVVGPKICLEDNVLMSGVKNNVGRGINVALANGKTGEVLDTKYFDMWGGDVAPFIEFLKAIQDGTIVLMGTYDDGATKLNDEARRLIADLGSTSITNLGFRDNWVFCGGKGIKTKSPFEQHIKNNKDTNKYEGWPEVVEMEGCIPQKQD
Sequence of PURA (human) (Q00577 2-322 limits assumed): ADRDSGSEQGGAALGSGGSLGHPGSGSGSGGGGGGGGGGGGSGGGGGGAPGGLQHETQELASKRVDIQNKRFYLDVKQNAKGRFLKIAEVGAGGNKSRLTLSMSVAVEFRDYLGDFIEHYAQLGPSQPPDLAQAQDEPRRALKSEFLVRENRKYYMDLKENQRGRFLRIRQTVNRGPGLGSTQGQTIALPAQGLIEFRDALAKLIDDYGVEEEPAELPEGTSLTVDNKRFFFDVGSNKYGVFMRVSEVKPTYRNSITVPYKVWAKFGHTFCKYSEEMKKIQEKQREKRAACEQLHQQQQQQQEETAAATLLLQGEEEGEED
Sequence of XPOT (human) (O43592 whole entry): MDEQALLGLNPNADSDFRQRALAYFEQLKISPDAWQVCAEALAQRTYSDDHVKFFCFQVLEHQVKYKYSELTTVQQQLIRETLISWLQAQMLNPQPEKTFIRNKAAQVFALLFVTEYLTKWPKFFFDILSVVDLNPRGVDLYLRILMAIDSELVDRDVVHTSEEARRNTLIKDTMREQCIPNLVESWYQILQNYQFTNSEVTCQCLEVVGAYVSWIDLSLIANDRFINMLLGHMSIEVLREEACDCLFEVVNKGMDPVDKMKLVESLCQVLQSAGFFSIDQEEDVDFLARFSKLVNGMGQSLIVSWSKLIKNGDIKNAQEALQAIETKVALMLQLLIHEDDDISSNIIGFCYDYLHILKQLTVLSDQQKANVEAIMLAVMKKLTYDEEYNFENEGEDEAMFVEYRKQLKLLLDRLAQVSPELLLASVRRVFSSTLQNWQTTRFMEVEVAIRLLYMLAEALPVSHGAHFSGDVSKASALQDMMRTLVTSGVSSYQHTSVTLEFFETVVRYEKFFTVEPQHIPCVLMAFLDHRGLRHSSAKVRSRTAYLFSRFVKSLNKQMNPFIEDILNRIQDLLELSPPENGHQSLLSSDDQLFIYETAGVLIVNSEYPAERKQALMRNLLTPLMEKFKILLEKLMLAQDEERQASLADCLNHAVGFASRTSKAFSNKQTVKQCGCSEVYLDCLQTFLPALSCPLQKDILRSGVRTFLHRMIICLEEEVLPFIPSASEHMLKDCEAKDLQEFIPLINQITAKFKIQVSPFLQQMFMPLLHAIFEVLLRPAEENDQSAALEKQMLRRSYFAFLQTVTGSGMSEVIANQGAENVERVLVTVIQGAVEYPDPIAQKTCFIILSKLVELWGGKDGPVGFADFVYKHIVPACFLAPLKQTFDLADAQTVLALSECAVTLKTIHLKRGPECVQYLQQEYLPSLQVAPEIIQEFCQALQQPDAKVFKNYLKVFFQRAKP
Sequence of HSD17B12 (human) (Q53GQ0 whole entry): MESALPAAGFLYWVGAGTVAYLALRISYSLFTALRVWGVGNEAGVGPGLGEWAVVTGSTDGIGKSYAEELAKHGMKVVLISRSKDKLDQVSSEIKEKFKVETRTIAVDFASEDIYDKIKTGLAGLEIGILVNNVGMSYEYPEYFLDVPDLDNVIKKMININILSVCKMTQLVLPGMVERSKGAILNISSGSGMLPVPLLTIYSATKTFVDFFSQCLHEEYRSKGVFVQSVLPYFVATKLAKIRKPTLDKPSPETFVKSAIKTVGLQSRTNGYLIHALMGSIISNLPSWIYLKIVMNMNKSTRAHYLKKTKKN
Sequence of SYNM (human) (O15061 whole entry): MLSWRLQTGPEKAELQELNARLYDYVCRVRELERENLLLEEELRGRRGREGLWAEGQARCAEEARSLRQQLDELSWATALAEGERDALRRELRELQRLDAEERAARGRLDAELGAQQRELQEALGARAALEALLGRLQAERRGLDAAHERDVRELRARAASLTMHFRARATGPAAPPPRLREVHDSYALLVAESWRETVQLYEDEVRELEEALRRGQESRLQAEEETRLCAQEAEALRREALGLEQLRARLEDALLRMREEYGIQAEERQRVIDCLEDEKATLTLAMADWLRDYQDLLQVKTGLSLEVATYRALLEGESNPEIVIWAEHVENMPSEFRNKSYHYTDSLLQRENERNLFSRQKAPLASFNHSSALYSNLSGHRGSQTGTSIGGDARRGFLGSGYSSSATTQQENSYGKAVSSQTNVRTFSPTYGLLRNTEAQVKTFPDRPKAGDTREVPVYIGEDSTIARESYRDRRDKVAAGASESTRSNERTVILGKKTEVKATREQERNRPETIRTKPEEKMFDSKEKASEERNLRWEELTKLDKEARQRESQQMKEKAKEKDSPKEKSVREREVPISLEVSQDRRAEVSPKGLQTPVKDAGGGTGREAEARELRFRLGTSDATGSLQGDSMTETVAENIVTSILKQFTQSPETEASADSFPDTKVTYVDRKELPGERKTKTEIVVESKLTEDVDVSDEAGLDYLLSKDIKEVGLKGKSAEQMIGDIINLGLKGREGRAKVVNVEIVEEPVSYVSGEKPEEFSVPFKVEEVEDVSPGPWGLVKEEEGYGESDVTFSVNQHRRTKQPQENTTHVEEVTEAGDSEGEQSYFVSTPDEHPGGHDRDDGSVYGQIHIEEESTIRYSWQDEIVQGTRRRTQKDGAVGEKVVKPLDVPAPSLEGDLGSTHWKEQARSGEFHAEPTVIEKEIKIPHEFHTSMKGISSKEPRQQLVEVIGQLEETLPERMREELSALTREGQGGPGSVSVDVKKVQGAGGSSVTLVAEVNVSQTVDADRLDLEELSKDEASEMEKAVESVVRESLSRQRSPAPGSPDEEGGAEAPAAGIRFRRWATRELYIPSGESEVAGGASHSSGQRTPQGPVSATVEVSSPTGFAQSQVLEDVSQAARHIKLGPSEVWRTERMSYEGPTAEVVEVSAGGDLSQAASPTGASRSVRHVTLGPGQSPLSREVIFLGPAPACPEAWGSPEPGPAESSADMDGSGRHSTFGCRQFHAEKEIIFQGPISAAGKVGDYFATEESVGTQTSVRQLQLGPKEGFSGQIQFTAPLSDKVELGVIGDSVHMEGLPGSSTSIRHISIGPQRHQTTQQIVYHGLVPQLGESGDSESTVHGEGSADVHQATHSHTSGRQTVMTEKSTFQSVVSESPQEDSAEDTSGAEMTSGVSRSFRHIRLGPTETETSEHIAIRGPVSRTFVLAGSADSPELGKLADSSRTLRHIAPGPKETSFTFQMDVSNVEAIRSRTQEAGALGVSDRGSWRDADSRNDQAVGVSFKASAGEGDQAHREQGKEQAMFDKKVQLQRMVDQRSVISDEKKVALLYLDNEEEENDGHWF
Sequence of SLC25A4 (human) (P12235 2-298 limits assumed): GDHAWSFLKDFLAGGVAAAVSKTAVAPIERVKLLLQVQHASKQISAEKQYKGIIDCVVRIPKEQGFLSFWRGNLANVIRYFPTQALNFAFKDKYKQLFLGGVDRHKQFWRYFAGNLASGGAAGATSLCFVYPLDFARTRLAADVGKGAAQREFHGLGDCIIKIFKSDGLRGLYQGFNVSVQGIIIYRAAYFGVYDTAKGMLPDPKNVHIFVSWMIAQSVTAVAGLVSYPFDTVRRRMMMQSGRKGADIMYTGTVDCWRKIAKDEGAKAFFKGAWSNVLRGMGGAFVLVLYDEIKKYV

C-terminal FLAG tagged B3GNT2 (from UniProt Q9NY97 1-397) (enzyme)
co-IP mass spectrometry count (ATP1A1 (human)): 12 | co-IP mass spectrometry count (CALU (human)): 13 | co-IP mass spectrometry count (FAM3C (human)): 23 | co-IP mass spectrometry count (FKBP10 (human)): 16 | co-IP mass spectrometry count (HSD17B12 (human)): 10 | co-IP mass spectrometry count (IPO4 (human)): 17 | co-IP mass spectrometry count (PDIA6 (human)): 14 | co-IP mass spectrometry count (RPL12 (human)): 11 | co-IP mass spectrometry count (RPL23A (human)): 10 | co-IP mass spectrometry count (RPL24 (human)): 14 | co-IP mass spectrometry count (RPL30 (human)): 14 | co-IP mass spectrometry count (RPS15 (human)): 11 | co-IP mass spectrometry count (RPS9 (human)): 6 | co-IP mass spectrometry count (SLC25A4 (human)): 14 | co-IP mass spectrometry count (UQCRC2 (human)): 4 | co-IP mass spectrometry count (GBF1 (human)): 5 | co-IP/MS count, C-term flag (MMP14 (human)): 2 | co-IP mass spectrometry count (PPFIBP1 (human)): 3 | co-IP/MS count, C-term flag (PRRC2C (human)): 15 | co-IP/MS count, C-term flag (PURA (human)): 3 | co-IP mass spectrometry count (RACK1 (human)): 3 | co-IP/MS count, C-term flag (RBM14 (human)): 2 | co-IP mass spectrometry count (RPL7 (human)): 21 | co-IP/MS count, C-term flag (RPS24 (human)): 8 | co-IP mass spectrometry count (RPS26 (human)): 11 | co-IP/MS count, C-term flag (SPARC (human)): 4 | co-IP mass spectrometry count (SYNM (human)): 5 | co-IP mass spectrometry count (TBL2 (human)): 5 | co-IP mass spectrometry count (TPM3 (human)): 5 | co-IP/MS count, C-term flag (XPO1 (human)): 2 | co-IP/MS count, C-term flag (XPOT (human)): 2 | co-IP mass spectrometry count (YTHDF2 (human)): 4
